From PMC10698143, “Phosphorylation of MIF by PIP4K2a is necessary for cilia biogenesis” (Cell Death & Disease, 2023) come the findings set out here.

In the assay the target is T1, PIP4K2a on the HuProt human protein chip (human, UniProt P48426 1-406).
T1 construct: Phosphatidylinositol-5-phosphate 4-kinase type 2 alpha, human recombinant protein of the HuProt chip; construct not described; source: human recombinant protein, highly purified, spotted on the HuProt human protein chip
T1 sequence (looked up): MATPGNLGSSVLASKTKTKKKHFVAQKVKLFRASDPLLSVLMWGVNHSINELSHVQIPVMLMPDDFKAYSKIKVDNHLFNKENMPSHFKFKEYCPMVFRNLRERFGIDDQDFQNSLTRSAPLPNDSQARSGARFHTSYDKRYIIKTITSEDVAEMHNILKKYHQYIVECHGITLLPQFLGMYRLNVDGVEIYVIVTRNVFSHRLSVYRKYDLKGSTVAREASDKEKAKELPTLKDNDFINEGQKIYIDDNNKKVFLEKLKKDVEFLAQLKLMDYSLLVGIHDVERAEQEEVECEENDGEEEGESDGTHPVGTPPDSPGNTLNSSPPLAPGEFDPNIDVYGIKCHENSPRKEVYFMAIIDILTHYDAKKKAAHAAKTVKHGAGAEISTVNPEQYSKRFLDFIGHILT
Nature of the assay: peptide or protein array; HuProt human protein chip (>21,000 purified human recombinant proteins on nitrocellulose-coated slides), renatured in 50 mM Tris-HCl pH 8.0, 100 mM NaCl, 1 mM DTT, 0.3% Tween 20, blocked with 5% BSA; probed with 50 nM purified human MIF for 1 h; detected with rabbit anti-MIF and Cy3 anti-rabbit IgG; hit if SNR of both duplicates over 1.2. The conditions noted are these: both partners purified.

B1: recombinant human MIF (rhMIF) (natural protein, UniProt P14174 1-115, looked up)
chain: MPMFIVNTNVPRASVPDGFLSELTQQLAQATGKPPQYIAVHVVPDQLMAFGGSSEPCALCSLHSIGKIGGAQNRSYSKLLCGLLAERLRISPDRVYINYYDMNAANVGWNNSTFA
notes: No catalogue number printed; also called purified human MIF protein; human recombinant MIF protein; source: bought: R&D Systems
As for B1, the binding result was “binds”.
